T1: RCD1-SRO-TAF4 (RST) domain from Radical-Induced Cell Death1, RCD1-RST_(499-572) (UniProt Q8RY59 499-572)
T1 sequence (looked up): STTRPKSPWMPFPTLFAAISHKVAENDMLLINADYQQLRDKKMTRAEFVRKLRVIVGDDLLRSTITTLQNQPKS


Assays:
[1] = target: RCD1-SRO-TAF4 (RST) domain from Radical-Induced Cell Death1, RCD1-RST_(499-572) (UniProt Q8RY59); assay: ITC
[2] = target: T1, RCD1-SRO-TAF4 (RST) domain from …; assay: ITC

Molecule	binding result [2]	other results
D-ANAC013_(254-274) peptide, D-enantiomer (from UniProt F4IED2 254-274)		fold difference in Kd against L-ANAC013 [1]: 500 fold
D-DREB2A_(255-272) peptide, D-enantiomer (from UniProt O82132 255-272)		fold difference in Kd against L-DREB2A [1]: 72 fold
D-ANAC046_(319-338) peptide, D-enantiomer (from UniProt Q9SQQ6 319-338)		fold difference in Kd against L-ANAC046 [1]: 15 fold
NLEEDMYLEINDLMEPEPEPT (peptide, UniProt F4IED2 254-274, looked up) [L-ANAC013_(254-274) peptide]	binds	
SSDMFDVDELLRDLNGDD (peptide, UniProt O82132 255-272, looked up) [L-DREB2A_(255-272) peptide]	binds	
SKSACDGLDDLIFWEDLYTS (peptide, UniProt Q9SQQ6 319-338, looked up) [L-ANAC046_(319-338) peptide]	binds	
